Measurements reported in article PMC7229184, “Cryo-EM structure of the volume-regulated anion channel LRRC8D isoform identifies features important for substrate permeation” (Communications Biology, 2020).

Molecular target: the molecule itself
Assay: cryo-EM structure; purified HsLRRC8D in 50 mM Tris pH 8.0, 150 mM NaCl, 5 mM dithiothreitol, 0.1% digitonin, 3 mg/mL, vitrified; single-particle analysis, C2 symmetry imposed; homo-hexamer ('dimer of trimers')

B1: human LRRC8D (leucine-rich repeat-containing 8 isoform D) wild-type protein (natural protein)
chain: MFTLAEVASLNDIQPTYRILKPWWDVFMDYLAVVMLMVAIFAGTMQLTKDQVVCLPVLPSPVNSKAHTPPGNAEVTTNIPKMEAATNQDQDGRTTNDISFGTSAVTPDIPLRATYPRTDFALPNQEAKKEKKDPTGRKTNLDFQQYVFINQMCYHLALPWYSKYFPYLALIHTIILMVSSNFWFKYPKTCSKVEHFVSILGKCFESPWTTKALSETACEDSEENKQRITGAQTLPKHVSTSSDEGSPSASTPMINKTGFKFSAEKPVIEVPSMTILDKKDGEQAKALFEKVRKFRAHVEDSDLIYKLYVVQTVIKTAKFIFILCYTANFVNAISFEHVCKPKVEHLIGYEVFECTHNMAYMLKKLLISYISIICVYGFICLYTLFWLFRIPLKEYSFEKVREESSFSDIPDVKNDFAFLLHMVDQYDQLYSKRFGVFLSEVSENKLREISLNHEWTFEKLRQHISRNAQDKQELHLFMLSGVPDAVFDLTDLDVLKLELIPEAKIPAKISQMTNLQELHLCHCPAKVEQTAFSFLRDHLRCLHVKFTDVAEIPAWVYLLKNLRELYLIGNLNSENNKMIGLESLRELRHLKILHVKSNLTKVPSNITDVAPHLTKLVIHNDGTKLLVLNSLKKMMNVAELELQNCELERIPHAIFSLSNLQELDLKSNNIRTIEEIISFQHLKRLTCLKLWHNKIVTIPPSITHVKNLESLYFSNNKLESLPVAVFSLQKLRCLDVSYNNISMIPIEIGLLQNLQHLHITGNKVDILPKQLFKCIKLRTLNLGQNCITSLPEKVGQLSQLTQLELKGNCLDRLPAQLGQCRMLKKSGLVVEDHLFDTLPLEVKEALNQDINIPFANGI
notes: Residues of the TEV site may remain at the C-terminus after cleavage; also called HsLRRC8D; not shown: GFP, C-terminal, cleaved; His8, C-terminal, cleaved
How did the “stoichiometry N” value turn out when B1 was run?
Its value is 6.
